In paper PMC4803301:

B1: R-spondin1 (Rspo1): 2WA (protein)
parent chain: MRLGLCVVALVLSWTHLTISSRGIKGKRQRRISAEGSQACAKGCELCSEVNGCLKCSPKLFILLERNDIRQVGVCLPSCPPGYFDARNPDMNKCIKCKIEHCEACFSHNFCTKCKEGLYLHKGRCYPACPEGSSAANGTMECSSPAQCEMSEWSPWGPCSKKQQLCGFRRGSEERTRRVLHAPVGDHAACSDTKETRRCTVRRVPCPEGQKRRKGGQGRRENANRNLARKESKEAGAGSRRRKGQQQQQQQGTVGPLTSAGPA
B2: R-spondin1 (Rspo1): siDPY19L3 (protein)
parent chain: B1 parent chain
B3: R-spondin1 (Rspo1): siDPY19L3#2 (protein)
parent chain: B1 parent chain

What was measured:
[1] = time course of secreted Rspo1, anti-myc blot; conditions: glycan lost; control: wild type
[2] = anti-myc blot of conditioned medium and lysate, HT1080; conditions: glycan lost; control: wild type
[3] = anti-myc blot of conditioned medium and lysate, HT1080-Rspo1-MH; conditions: glycan lost; control: siCtrl

| Protein | expression_or_secretion [1] | expression_or_secretion [2] | expression_or_secretion [3] |
| --- | --- | --- | --- |
| B1 | decreases | decreases | – |
| B2 | – | – | decreases |
| B3 | – | – | decreases |
